± gives the standard deviation of the averaged measurements.
Tested on: Saccharomyces cerevisiae
Assay: protein stability index of tFT-peptide fusion (C-terminal peptide) (PSI (0-1 scale)); higher = more stable (slower turnover)
Settings: genetic background: wild type; temperature: 30 C
Method: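 Multiplexed protein stability (MPS) profiling in S. cerevisiae. Random 12-aa peptides (tFT-X12 library) are fused to the C-terminus of a sfGFP-mCherry tandem fluorescent timer, after mCherry and a GGGS linker. Cells are FACS-sorted into 8 mCherry/sfGFP bins and deep-sequenced. The protein stability index (PSI) is the read-weighted bin average, scaled from 0 (unstable) to 1 (stable). Only peptides with >10 reads are reported; cells were grown at 30 °C in SC-His with glucose.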
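Further: PSI is a weighted mean of sequencing reads over stability bins, variants kept only with over 10 reads, mCherry proximal and sfGFP distal, peptide attached via GGGS linker.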

Sequence	protein stability index
GVWVGAVRGRYG	0.6625 ± 0.0061
GVYFMGVLGREG	0.655 ± 0.067
GVYVGWFMRSGG	0.678 ± 0.015
GWAGRCAPGRVG	0.637 ± 0.093
GWCPNRRSGVWV	0.7285 ± 0.0032
GWCVWGVFSTAL	0.631 ± 0.033
GWEVGRGRLGVV	0.696 ± 0.095
GWFVGLVSRSLH	0.67 ± 0.019
GWFVVYQIGSEV	0.564 ± 0.063
GWGGGGGAGGSV	0.683 ± 0.018
GWGGGGGAWKGV	0.736 ± 0.072
GWGPGGSERCGL	0.711 ± 0.025
GWLRGVCFCSWG	0.73 ± 0.037
GWQCGVNRGGWW	0.752 ± 0.057
GWSVGQSEMNTY	0.73 ± 0.056
GWVFLRVARFGL	0.684 ± 0.045
GWWCGGGGAWSG	0.719 ± 0.041
GWWGCGGWGFVG	0.624 ± 0.05
GYAGAIMAGYDP	0.656 ± 0.033
GYATVILYPSID	0.653 ± 0.029
GYDLSASRALLA	0.65 ± 0.019
GYLNSCADKNKV	0.664 ± 0.028
GYMFLSFLKLCW	0.599 ± 0.021
GYPRPLPYTPST	0.687 ± 0.023
GYPSLYCLSVFM	0.6155 ± 0.0058

Sequence	protein stability index
GYRGRDETNATN	0.65 ± 0.025
GYRNIEYGFGSG	0.575 ± 0.061
GYRVNIDIKIVY	0.5247 ± 0.0031
GYVLVLGVKGGL	0.648 ± 0.032
HAIPAPDLYHTQ	0.651 ± 0.09
HAPAPPLPTIYP	0.668 ± 0.094
HAPRSPCLPFPP	0.687 ± 0.047
HASPPPDASPPL	0.687 ± 0.022
HCVSPKPFLKSE	0.695 ± 0.045
HDQKVPRERRTR	0.699 ± 0.025
HDRRKAFHVVWL	0.663 ± 0.039
HDSMTQEPQNSA	0.65 ± 0.065
HDSRIDIASFHV	0.716 ± 0.024
HEDIPGSTYTIN	0.734 ± 0.033
HFLSCVGSLWFH	0.741 ± 0.0087
HGGCLGGYGGGG	0.661 ± 0.036
HGLLLRDRPLPT	0.665 ± 0.024
HGLVLLCINDIV	0.6312 ± 0.001
HGSDTSIALRSG	0.622 ± 0.038
HHHPGQKCKIKG	0.731 ± 0.016
HHLPPRTPPHNS	0.657 ± 0.037
HHQVVPDVSLVS	0.6585 ± 0.0013
HHTQPLKSIKKN	0.708 ± 0.037
HIFAQSFLNIRI	0.709 ± 0.04
HIGVVSIERLTS	0.576 ± 0.021

Sequence	protein stability index
HIHKKGPSGHQK	0.696 ± 0.028
HIPPPPRPSAPP	0.69 ± 0.04
HLGRRSGAQGLF	0.699 ± 0.06
HLPPFSGIHLTP	0.719 ± 0.011
HLPPLHRLSPPI	0.668 ± 0.04
HLPPPPSPPPPP	0.68 ± 0.051
HLPPSSPPLAVI	0.68 ± 0.009
HLPRRAAILNEF	0.709 ± 0.049
HLPSPPPPPSRL	0.744 ± 0.031
HLSCVSVSVRGS	0.629 ± 0.015
HLSNSCLHGVSG	0.6484 ± 0.00096
HLSPPLPPAPTS	0.7022 ± 0.0063
HLSPPPLPPLTS	0.696 ± 0.037
HLVLIHPTQTLN	0.634 ± 0.045
HMQCVFRSTHHR	0.585 ± 0.054
HNGRAARAYLCW	0.65 ± 0.046
HNRADKLQTTIE	0.69 ± 0.033
HPARPRPRLALS	0.666 ± 0.043
HPGPFSTTWHPT	0.743 ± 0.068
HPHRSAIIAGNH	0.72 ± 0.0083
HPLLTPTPHKPD	0.699 ± 0.11
HPLPPPLLPSPA	0.659 ± 0.096
HPLVASRLSPFP	0.761 ± 0.07
HPPHLSTPPYPP	0.722 ± 0.047
HPPLPRPPPVPH	0.683 ± 0.019

Sequence	protein stability index
HPPPDPLPSRPS	0.765 ± 0.093
HPPPHPPFPPRF	0.73 ± 0.016
HPPPLVPSPSTQ	0.749 ± 0.067
HPPSPPPPAPSC	0.738 ± 0.02
HPRLLLYLPTSS	0.726 ± 0.1
HPRRRPPPPSFP	0.611 ± 0.023
HPSEPCKSQILL	0.712 ± 0.027
HPSLSDLIVLCR	0.51 ± 0.01
HPTLPLLSHPTS	0.798 ± 0.14
HPTSPDPLVTPL	0.737 ± 0.068
HPYTPLLSRLSP	0.708 ± 0.0077
HQFRPYPLFTAR	0.733 ± 0.013
HQLHLMRDSIRN	0.716 ± 0.021
HRCVQFMNWVAF	0.735 ± 0.045
HRDRPYTPLSRF	0.722 ± 0.13
HRKKTKNVTHVK	0.6485 ± 0.0062
HRNPNLPFPPPL	0.74 ± 0.069
HRTSSCESSPLA	0.737 ± 0.076
HSAVRMGTRGRG	0.715 ± 0.049
HSCPVCVGWNYS	0.654 ± 0.047
HSDRPSPTRPQP	0.6431 ± 0.0029
HSHAGIGPVVTR	0.672 ± 0.0077
HSHKHTREDTVL	0.657 ± 0.036

Reference: the supplement of paper PMC10724198
